We go through 37 sequences from the Immune Epitope Database (IEDB).

The Kd is a measure of binding affinity in units of concentration.

One assay has as its target HLA-A*03:01. The assay can be described thus: IEDB peptide-MHC binding, purified MHC/competitive/radioactivity; filed as Kd, often an IC50 or EC50 that approximates it; ≥ and ≤ were set here for values at or beyond the usual limits of such assays. As to conditions: source organism: Vaccinia virus WR.
Consider VVMHINSPFK, for which the equilibrium dissociation constant (Kd) came to 8.41 nM.
The same measure, in the same setting: the figure for VSKHWELTNK is 680 nM.
Same read-out and setting: next, QAELTSNCTR: 2530 nM; RIGTAATKR: 180 nM; IMVASDVCKK: 16.9 nM.
FMTLVPVLEK: the equilibrium dissociation constant (Kd) was 82.6 nM.
Still for that read-out and setting: next, CFPSTQRDY: 868 nM; RIGTAATKRY: 1250 nM; LSKDKMDSFK: 25.1 nM.
Same read-out and setting: next, VLSAATETY: 3010 nM; GQRCHFIKK: 21.4 nM.
Still for that read-out and setting: the figure for NSNIIKNKK is 10200 nM; for QLCYCPASKK it is 170 nM.
With ISLNSMYTR, the Kd came to 6100 nM.
Turning to YSFKLILAEY, the Kd stood at 8180 nM.
The same measure, in the same setting: next, ISEKETLNEY: at least 70100 nM.
With AIEPSGNNY, the Kd is at least 59600 nM.
On to AARILSEKR, for which the dissociation constant Kd was at least 78000 nM.
Same read-out and setting: next, QIDRLEDLSK: 1450 nM.

The next assay addresses HLA-A*31:01. The assay is described as above. As to conditions: source organism: Lassa virus GA391.
As to LMSIISTFH, the dissociation constant Kd was determined as 481 nM.

The assay is the same for the next values; noted with them: source organism: Lassa virus Josiah.
Regarding AMSCDFNGGK, the Kd was at least 30000 nM.

The same assay, now with this note: source organism: Mammarenavirus machupoense.
On to SSFDYCGVNH, for which the equilibrium dissociation constant (Kd) came to 1970 nM.

Still in this assay, the particulars now being: source organism: SARS coronavirus Tor2.
Consider ALSTNHGHK, for which the Kd is 8930 nM.
The same measure, in the same setting: the figure for WIMLLQFAY is 5330 nM.
Same read-out and setting: next, KTNCCRFQEK: 50.5 nM.
On the same count and under the same terms, next, IVFVCVEYY: 112 nM; GMSYYCKSHK: 111 nM.
As to YFVCWHTHNY, the Kd amounted to 2330 nM.
Still for that read-out and setting: the figure for KVKYLYFIK is 0.138 nM; for TQNVLYENQK it is 13300 nM.
Still for that read-out and setting: next, AIVCRFDTR: 133 nM; ASLPYGANK: 514 nM; QQQGQTVTK: 3030 nM.
On the same count and under the same terms, the figure for TMHANYIFWR is 11.3 nM.

The same assay, now with this note: source organism: Vaccinia virus WR.
As for PSVNEYHMLK, the equilibrium dissociation constant (Kd) came to 408 nM.
The same measure, in the same setting: the figure for FSPENKAFK is 6710 nM.
Consider ISSVQLSNNK, for which the dissociation constant Kd is 4420 nM.
Same read-out and setting: next, VVMHINSPFK: 123 nM; VSKHWELTNK: 1780 nM.
As for QAELTSNCTR, the Kd amounted to 801 nM.
The same measure, in the same setting: the figure for RIGTAATKR is 17.2 nM; for IMVASDVCKK it is 270 nM; for FMTLVPVLEK it is 73.3 nM.
The same measure, in the same setting: next, CFPSTQRDY: 9810 nM.
Still for that read-out and setting: next, RIGTAATKRY: at least 70000 nM; LSKDKMDSFK: 27.8 nM.
VLSAATETY: the Kd is at least 69700 nM.
Take GQRCHFIKK: the Kd was 62 nM.
On the same count and under the same terms, the figure for NSNIIKNKK is 1250 nM; for QLCYCPASKK it is 12500 nM.
On to ISLNSMYTR, for which the dissociation constant Kd came to 4.62 nM.
Same read-out and setting: next, YSFKLILAEY: 658 nM; ISEKETLNEY: at least 45800 nM.
Same read-out and setting: the figure for AIEPSGNNY is at least 77900 nM; for AARILSEKR it is 36.3 nM.
Still for that read-out and setting: next, QIDRLEDLSK: 6790 nM.

A further assay concerns the target HLA-A*11:01. The assay is described as above. To be noted: source organism: Lassa virus GA391.
Consider LMSIISTFH, for which the dissociation constant (Kd) is 11200 nM.

Still in this assay, the particulars now being: source organism: Lassa virus Josiah.
Consider AMSCDFNGGK, for which the Kd was 273 nM.

Staying with this assay, now noted: source organism: Mammarenavirus machupoense.
With SSFDYCGVNH, the Kd stood at 4840 nM.

The same assay, now with this note: source organism: SARS coronavirus Tor2.
For ALSTNHGHK, the Kd stood at 619 nM.
Regarding WIMLLQFAY, the dissociation constant Kd is 14100 nM.
Still for that read-out and setting: the figure for KTNCCRFQEK is 33.3 nM; for IVFVCVEYY it is 41 nM; for GMSYYCKSHK it is 91.3 nM.
For the sequence YFVCWHTHNY, the dissociation constant Kd came to 8120 nM.
In the case of KVKYLYFIK, the Kd was determined as 49.1 nM.
For TQNVLYENQK, the equilibrium dissociation constant (Kd) amounted to 523 nM.
In the case of AIVCRFDTR, the Kd turned out to be 1210 nM.
Still for that read-out and setting: the figure for ASLPYGANK is 111 nM; for QQQGQTVTK it is 476 nM.
With TMHANYIFWR, the Kd came out at 125 nM.

Staying with this assay, now noted: source organism: Vaccinia virus WR.
Consider PSVNEYHMLK, for which the Kd is 13.7 nM.
On to FSPENKAFK, for which the Kd turned out to be 5020 nM.
Same read-out and setting: next, ISSVQLSNNK: 121 nM; VVMHINSPFK: 2.56 nM.
On to VSKHWELTNK, for which the Kd was determined as 157 nM.
The same measure, in the same setting: next, QAELTSNCTR: 2430 nM; RIGTAATKR: 2420 nM.
The same measure, in the same setting: the figure for IMVASDVCKK is 53.3 nM.
On the same count and under the same terms, next, FMTLVPVLEK: 3.96 nM; CFPSTQRDY: 2510 nM; RIGTAATKRY: at least 69800 nM.
For the sequence LSKDKMDSFK, the Kd was found to be 15 nM.
VLSAATETY: the Kd was found to be 6460 nM.
With GQRCHFIKK, the equilibrium dissociation constant (Kd) is 13.4 nM.
Still for that read-out and setting: the figure for NSNIIKNKK is 1240 nM.
As for QLCYCPASKK, the dissociation constant Kd stood at 96.2 nM.
Turning to ISLNSMYTR, the Kd was 37.4 nM.
Same read-out and setting: the figure for YSFKLILAEY is 7290 nM.
Same read-out and setting: next, ISEKETLNEY: 3000 nM; AIEPSGNNY: 5790 nM.
With AARILSEKR, the Kd stood at 6080 nM.
Same read-out and setting: next, QIDRLEDLSK: 255 nM.
